These results are taken from patent CN114592010A.

The target of this assay is NK细胞自身的IL-15受体(IL15Rβγ) (UniProt P14784). The assay is described as follows: cell-based or functional assay.
UniProt P14784, sequence (P14784 27-551 limits assumed, chain 1 of 2): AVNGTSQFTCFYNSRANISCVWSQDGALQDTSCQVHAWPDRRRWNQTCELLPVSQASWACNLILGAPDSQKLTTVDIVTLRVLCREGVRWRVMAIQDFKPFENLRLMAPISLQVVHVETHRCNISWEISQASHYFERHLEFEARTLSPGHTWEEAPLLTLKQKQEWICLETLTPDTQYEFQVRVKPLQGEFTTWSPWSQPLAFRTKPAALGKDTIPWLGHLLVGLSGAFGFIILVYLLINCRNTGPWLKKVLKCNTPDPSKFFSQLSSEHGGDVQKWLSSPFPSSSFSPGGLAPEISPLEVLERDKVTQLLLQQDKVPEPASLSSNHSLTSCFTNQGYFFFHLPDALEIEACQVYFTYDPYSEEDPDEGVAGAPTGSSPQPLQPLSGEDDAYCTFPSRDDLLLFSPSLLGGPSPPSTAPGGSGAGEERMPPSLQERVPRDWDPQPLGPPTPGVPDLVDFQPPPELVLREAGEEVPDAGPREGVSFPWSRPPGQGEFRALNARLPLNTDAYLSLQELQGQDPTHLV
UniProt P14784, sequence (P31785 23-369 limits assumed, chain 2 of 2, further chain): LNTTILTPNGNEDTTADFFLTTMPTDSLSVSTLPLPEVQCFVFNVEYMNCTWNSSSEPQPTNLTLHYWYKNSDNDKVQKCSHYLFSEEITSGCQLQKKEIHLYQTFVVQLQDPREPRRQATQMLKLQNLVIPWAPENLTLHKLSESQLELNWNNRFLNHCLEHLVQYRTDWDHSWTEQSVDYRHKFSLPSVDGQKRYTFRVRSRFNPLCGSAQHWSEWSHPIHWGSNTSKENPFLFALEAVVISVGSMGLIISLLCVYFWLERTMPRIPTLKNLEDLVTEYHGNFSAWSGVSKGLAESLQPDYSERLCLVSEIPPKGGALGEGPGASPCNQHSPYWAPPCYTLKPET

In turn, “膜结合型IL-15 (IL-15-CD8 hinge-CD8 TM融合蛋白) (ligand)” came in with a 增殖效果 (CCK8), NKMB cells = 实施例3 NK-CAR(NK-CAR)-MbIL-15, 1d (relative to 0d = 1) of 1.66; a 增殖效果 (CCK8), NKMB cells = 实施例3 NK-CAR(NK-CAR)-MbIL-15, 2d (relative to 0d = 1) of 2.37; a 增殖效果 (CCK8), NKMB cells = 实施例3 NK-CAR(NK-CAR)-MbIL-15, 3d (relative to 0d = 1) of 2.83; a 增殖效果 (CCK8), NKMB cells = 实施例3 NK-CAR(NK-CAR)-MbIL-15, 4d (relative to 0d = 1) of 4.12. For the same substance, the 增殖效果 (CCK8), TMB cells = 实施例4 NK-CAR(T-CAR)-MbIL-15, 1d (relative to 0d = 1) is 1.67; the 增殖效果 (CCK8), TMB cells = 实施例4 NK-CAR(T-CAR)-MbIL-15, 2d (relative to 0d = 1) came to 2.7; the 增殖效果 (CCK8), TMB cells = 实施例4 NK-CAR(T-CAR)-MbIL-15, 3d (relative to 0d = 1) was found to be 3.63; the 增殖效果 (CCK8), TMB cells = 实施例4 NK-CAR(T-CAR)-MbIL-15, 4d (relative to 0d = 1) is 7.77.
